This experiment has as its target T1, His-H1.0 fusion protein (histone H1.0) (UniProt P07305 2-194).
T1 construct: histone H1.0; Used in the pull-down and as analyte in SPR; source: E. coli BL21, purified (Ni-NTA Sepharose)
Description: SPR; BIAcore T200; His-NS1 amine-coupled on a CM5 chip (600 RU); H1.0 at 0-500 nM in PBS flowed over, 30 uL/min, dissociation 360 s. As to conditions: both partners purified.

This note sets out measurements from publication PMC12596378, “Nonstructural Protein 1 Mediates HMGB1 Release by Targeting Histone H1.0 After Respiratory Syncytial Virus Infection In Vivo and In Vitro” (Inflammation, 2025).

T1 sequence (P07305 2-194): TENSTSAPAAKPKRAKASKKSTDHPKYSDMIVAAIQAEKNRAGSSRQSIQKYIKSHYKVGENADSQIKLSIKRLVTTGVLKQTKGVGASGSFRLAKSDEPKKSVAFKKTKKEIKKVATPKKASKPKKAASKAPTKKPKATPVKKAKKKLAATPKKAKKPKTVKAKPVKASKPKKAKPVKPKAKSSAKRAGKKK

B1: His-NS1 fusion protein (respiratory syncytial virus nonstructural protein 1) (natural protein)
chain: MGSNSLSMIKVRLQNLFDNDEVALLKITCYTDKLIHLTNALAKAVIHTIKLNGIVFVHVITSSDICPNNNIVVKSNFTTMPVLQNGGYIWEMMELTHCSQPNGLLDDNCEIKFSKKLSDSTMTNYMNQLSELLGFDLNP
notes: nonstructural protein 1 (NS1) of respiratory syncytial virus; Immobilised by amine coupling on the CM5 chip; source: E. coli BL21, purified
One may read the Kd as a measure of binding affinity in units of concentration. By kon is commonly meant a measure of how fast the partners come together. Lower therefore signals slower complex formation. On to B1, for which the Kd worked out at 31.2 nM and the kon was determined as 25400 M⁻¹ s⁻¹.
